Data on three molecules can be found in US20260083749A1, “ANTI-CD123 IMMUNOCONJUGATES FOR THE TREATMENT OF ACUTE MYELOID LEUKEMIA” (ImmunoGen, Inc., priority 2024, published 2026).

One series relates to AML patients. The settings on record: published for other AML therapies; cited from earlier work.
In series [1] the test system is normal marrow progenitors. The note with it: background statement; cited from earlier work.
Series [2] deals with patients with R/R AML. In words: Phase 1/2 trial of pivekimab sunirine monotherapy Q3W: anti-leukemia responses. The series is classed as in vivo, human. The note with it: for Median time to first CCR (CR/CRh/CRi): range. The source says: (§1) Patients with AML were enrolled into a phase 1/2 clinical trial of pivekimab sunirine. Key inclusion and exclusion criteria were as follows.
• Patients ≥18 years old • R/R AML • Confirmation of CD123 positivity on flow cytometry or immunohistochemistry (IHC). Patients who received prior CD123-targeting agents were allowed as long as the blasts still had detectable CD123 expression. • Eastern Cooperative Oncology Group (ECOG) performance status ≤1. […] Patients with a PCHM were eligible as long as no current therapy was still required for the second malignancy (e.g., MDS, CMML). Patients with a nonhematologic prior malignancy were in remission from the prior malignancy.
(§2) Patients with R/R AML (n=68) were treated with pivekimab sunirine once every 3 weeks (Q3W; on day 1 of a 3-week cycle).
(§3) The trial included a dose-escalation phase and a dose-expansion phase. All patients in both phases received intravenous doses of pivekimab sunirine on day 1 of a 21-day cycle as a <30-minute outpatient infusion. Lyophilized pivekimab sunirine was reconstituted using […] of water for injection. Planned treatment consisted of 2 cycles (6 weeks). Additional cycles, up to 10 total, were administered for patients deriving benefit from this regimen. CNS prophylactic intrathecal chemotherapy was administered. Patients received 8 mg dexamethasone on the day before any pivekimab sunirine dose. Patients also received 25-50 mg diphenhydramine, 325-650 mg acetaminophen or paracetamol, and 8 mg dexamethasone before each pivekimab sunirine infusion.
(§4) In the dose-escalation phase, patients received doses of pivekimab sunirine starting at 0.015 mg/kg with five escalations (n=38): 0.015 mg/kg (n=3), 0.045 mg/kg (n=9), 0.09 mg/kg (n=12), […] (n=7), 0.3 mg/kg (n=5), and 0.45 mg/kg (n=2).
Anti-leukemia responses were assessed per International Working Group (IWG) criteria 2003 (Cheson B D, et al. Revised recommendations of the International Working Group for Diagnosis, Standardization of Response Criteria, Treatment Outcomes, and Reporting Standards for Therapeutic Trials in Acute Myeloid Leukemia. J Clin Oncol 2003; 21(24): 4642-9) and European LeukemiaNet (ELN) response criteria 2017 (Dohner H, et al. Diagnosis and management of AML in adults: 2017 ELN recommendations from an international expert panel. Blood 2017; 129(4): 424-47) as composite complete remission (CCR) rate (defined as CR without minimal residual disease [CRMRD−]+CR+CRh+CR with incomplete recovery CRi]). Overall response rate (ORR) was defined as CRMRD−+CR+CRh+CRi+morphologic leukemia-free state (MLFS) +partial response (PR). Duration of overall response (DOR) was also evaluated.
Response assessments were performed in bone marrow aspirates (BMAs) for differential assessments taken on Cycle 1, Day 21±7 days. Subsequent BMAs were performed approximately every 1 to 2 cycles as clinically indicated, and at the 30-Day Follow-up visit. Data was also collected in the event BMAs were performed more frequently. No repeat bone marrow was necessary if lack of response or PD could be unequivocally diagnosed from peripheral blood tests or if the bone marrow test was considered noncontributory at any time point.

In series [3] the test system is patients with R/R AML. In words: Phase 1/2 trial of pivekimab sunirine monotherapy Q3W: safety (TEAEs, SAEs, DLTs). The series is classed as in vivo, human. As to the method: as §1, §2, §3
Following preparation, IMGN632 (or pivekimab sunirine (pvek)) was administered by IV syringe pump. Overall length of infusion was varied depending on dose and patient tolerability. Initially, the study drug was administered at a rate of 0.165 mg/min ([…]); and, after 30 minutes, if well tolerated, the rate was increased to 0.33 mg/min. Subsequent infusions were delivered at the highest tolerated rate. Before and following infusion, the line was flushed with 5% dextrose to ensure delivery of the full dose. Patients were carefully observed during each infusion and vital signs were monitored. Patients remained in the clinic under observation for 4 hours after the first infusion and for at least 1 hour after each subsequent infusion.
as §4
Based on nonclinical pharmacology, clinical safety, anti-leukemia activity, PK, and PD assessments during the dose-escalation phase, two cohorts were established for the dose expansion phase. • Cohort 1: Patients with relapsed AML received 0.045 mg/kg (escalation dose level 2) Q3W (n=20). • Cohort 2: Patients with relapsed or refractory (to non-intense therapies) AML received 0.09 mg/kg (escalation dose level 3) Q3W (n=10).
Safety was assessed by treatment-emergent adverse events (TEAEs), serious adverse events (SAEs), and dose-limiting toxicities (DLTs). The median duration of treatment in participants who received […] pivekimab sunirine Q3W (n=29) was 9 weeks (range, 3-110).

For the next series, the system named is AML xenografts. The settings on record: background statement; cited from earlier work.
The test system of series [4] is patients with R/R AML. In words: Phase 1/2 trial of pivekimab sunirine monotherapy Q3W: safety (TEAEs, SAEs, DLTs). Type of series: in vivo, human. The settings on record: N= 3/91; dose levels four- to ten-fold higher per cycle than the RP2D.
Where [5] appears, read: RP2D, prior intensive therapy, n= 5/22.
[6] abbreviates: RP2D, prior venetoclax exposure, n= 2/14.

Consider `CCc1nc(C(N)=O)c(Nc2ccc(N3CCC(N4CCN(C)CC4)CC3)c(OC)c2)nc1NC1CCOCC1` [gilteritinib], for which, in the series with AML patients, the “Incidence of febrile neutropenia, published” value is 46%.
As for `N#Cc1ccnc(N2C(=O)CC[C@H]2C(=O)N(c2cncc(F)c2)[C@H](C(=O)NC2CC(F)(F)C2)c2ccccc2Cl)c1` [ivosidenib], the “Incidence of febrile neutropenia, published” value in the series with AML patients was 29%.

B1: pivekimab sunirine (conjugate, chains of the INN, looked up)
VH: QVQLVQSGAEVKKPGASVKVSCKASGYIFTSSIMHWVRQAPGQGLEWIGYIKPYNDGTKYNEKFKGRATLTSDRSTSTAYMELSSLRSEDTAVYYCAREGGNDYYDTMDYWGQGTLVTVSS
VL: EIQMTQSPSSLSASVGDRVTITCRASQDINSYLSWFQQKPGKAPKTLIYRVNRLVDGVPSRFSGSGSGNDYTLTISSLQPEDFATYYCLQYDAFPYTFGQGTKVEIK
modifications: sunirine payload (DNA-alkylating drug conjugate)
As to B1, the “Toxicity in normal marrow progenitors versus other DNA-targeting payloads” value in series [1] is on record as “less toxicity in normal marrow progenitors”. In the series with patients with R/R AML [2] (All Participants (n = 68)), the “Best overall response CR, %” value is “(3) %”; the “Best overall response CR, No.” value is given as 2 No; the “Best overall response CRh, %” value is “(3) %”; the “Best overall response CRh, No.” value came to 2 No. For the same molecule, in the series with patients with R/R AML [2] (All Participants (n = 68)), the “Best overall response CRi, %” value is recorded as “(6) %”; the “Best overall response CRi, No.” value was 4 No; the “Best overall response MLFS, %” value was “(3) %”; the “Best overall response MLFS, No.” value was found to be 2 No. Besides, in the series with patients with R/R AML [2] (All Participants (n = 68)), the “Best overall response PD, %” value is given as “(24) %”; the “Best overall response PD, No.” value came out at 16 No; the “Best overall response PR, %” value is on record as “(2) %”; the “Best overall response PR, No.” value was determined as 1 No. In addition, in the series on patients with R/R AML [2] (All Participants (n = 68)), the “Best overall response SD, %” value is “(52) %”; the “Best overall response SD, No.” value worked out at 35 No; the “CCR rate (CR + CRh + CRi), %” value is given as “(12) %”; the “CCR rate (CR + CRh + CRi), No.” value was 8 No. Further, in the series with patients with R/R AML [2] (All Participants (n = 68)), the “Median duration of CR” value was 2.2 mo; the “Median duration of remission” value is given as 2.0 mo; the “ORR (CR + CRh + CRi + MLFS + PR), No.” value is listed as 11 No. In addition, the “Anti-leukemia activity versus CD123 expression” value in the series with patients with R/R AML [2] (FIG. 3) is listed as “anti-leukemia activity regardless of CD123 expression”. In addition, the ORR with patients with R/R AML [2] (RP2D, de novo (nonsecondary) AML, n= 6/18) was determined as 33%. Further, in the series on patients with R/R AML [2] (RP2D, prior HSCT, n= 3/9), the CCR turned out to be 33% and the ORR came out at 33%. In the series on patients with R/R AML [2] (setting [5]), this molecule returned a CCR of 23% and an ORR of 23%. In the series on patients with R/R AML [2] (setting [6]), this molecule displayed a CCR of 14% and an ORR of 14%. This molecule also gave a CCR in the series on patients with R/R AML [2] (RP2D, two prior lines, n= 3/15) of 20%. The same molecule displayed an ORR in the series with patients with R/R AML [2] (RP2D, two prior lines, n= 4/15) of 27%. This molecule returned a CCR with patients with R/R AML [2] (RP2D, venetoclax-naive, n= 3/15) of 20%. The ORR in the series with patients with R/R AML [2] (RP2D, venetoclax-naive, n= 4/15) was determined as 27%. Moreover, the “Median duration of CCR (CR/CRh/CRi)” value in the series on patients with R/R AML [2] (RP2D, 95% CI 1.64-not estimable) is listed as 2.27 months. In addition, in the series on patients with R/R AML [2] (RP2D, 0.79-3.61), the “Median time to first CCR (CR/CRh/CRi)” value amounted to 2.04 months. The “Participants with decrease in bone marrow blasts” value in the series with patients with R/R AML [2] (all dose levels and cohorts, n= 31/68) is 46%. Also, in the series with patients with R/R AML [2] (all schedule A doses, 95% CI 1.02-3.55), the “Median duration of CCR (CR/CRh/CRi)” value was found to be 2.22 months. Also, in the series on patients with R/R AML [2] (all schedule A doses, 0.46-4.37), the “Median time to first CCR (CR/CRh/CRi)” value worked out at 1.76 months. Further, the “Participants with >100% increase in BM blasts” value in the series with patients with R/R AML [2] (cohort 1 and cohort 2 R/R AML, FIG. 1) came to 11 participants. Moreover, in the series with patients with R/R AML [2] (in vivo), the “Individual responses in participants with FLT3-ITD mutations” value is “¼” and the “Individual responses in participants with IDH1 mutations” value was “⅓”. The “Prolonged neutropenia (grade 3) considered related to pivekimab sunirine (DLT)” value in the series on patients with R/R AML [3] (0.3 mg/kg after 2 cycles) is on record as “one”. The molecule also registered a 30-day mortality rate in the series on patients with R/R AML [3] (2 deaths due to disease progression) of 7%. For the same molecule, in the series with patients with R/R AML [3] (30-fold dose escalation, 0.015-[…] Q3W), the “Maximum tolerated dose (MTD)” value was “no maximum tolerated dose (MTD) defined”. For the same molecule, in the series on patients with R/R AML [3] (all schedule A participants), the “Incidence of febrile neutropenia” value amounted to 35%. The “Reversible VOD possibly related to pivekimab sunirine (DLT)” value with patients with R/R AML [3] (grade 3, 0.18 mg/kg after 2 cycles, grade 4, […] during cycle 1) is “two”. Besides, in the series with patients with R/R AML [3] (in vivo), the “Grade 4 IRRs” value was “no grade 4 IRRs occurred”. In addition, the IRRs in the series with patients with R/R AML [3] (mostly tachycardia and/or chills with the first dose, primarily grade 1-2) came out at 31%. For the same molecule, the “Participants who experienced DLTs” value in the series with patients with R/R AML [3] (of the 68 participants, all doses) is listed as “Three”. In the series on patients with R/R AML [3] (seven of 68 participants), the “TEAEs leading to treatment discontinuation” value amounted to 10%. Moreover, the “Antitumor activity in AML xenografts” value in the series with AML xenografts is reported as “potent antitumor activity”. Moreover, the “Reversible VOD” value in the series on patients with R/R AML [4] is 3%.
